Measured values taken from the supplement of paper PMC10126150.
± gives the standard deviation of the averaged measurements.

System: ATP
Experiment: switch fluorescence ratio, 500 uM ATP over buffer (Cy3 cluster intensity, sum of 5 cycles each) (fold (ratio)); higher = stronger signal-on switching upon ATP binding; sequences stand for … in TCGTCGGCAGCGTCAGATGTGTATAAGAGACAGTTTTTTTTTTTTTTTTTTTTTTTTT…TC
Details: aptamer strand: ATP DNA aptamer (quencher-CACCTGGGGGAGTATTGCGGAGGAAGG + anchor), 100 nM annealed; ATP concentration: 500 uM
How it was run: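 The quencher-labelled ATP aptamer, at 100 nM, was annealed to Cy3-labelled switching-strand clusters on a modified Illumina MiSeq flow-cell. The clusters were imaged in selection buffer, then after 15 min with 500 uM ATP at 22 °C, and this buffer/ATP cycle ran five times with NaOH stripping and re-annealing between runs. Per-cluster fluorescence ratios, summed target-cycle over summed buffer-cycle Cy3 intensity, were averaged per switch-domain sequence. Clusters outside 100-1000 RFU were excluded.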
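Further: ATP exposure 15 min at 22 °C before imaging.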

GGAGGGCCTG and GGGGTAGTTG are within error of each other in switch fluorescence ratio: 0.986 ± 0.013 for the first, 0.99 ± 0.028 for the second.

Compared with AGTGTTTGCC, GTGTTTTATA is lower in switch fluorescence ratio: 1.036 ± 0.0035 for the first, 0.977 ± 0.026 for the second.

ACGGGCAGGG and CGAAGACCAG are within error of each other in switch fluorescence ratio: 1.03 ± 0.041 for the first, 1.05 ± 0.081 for the second.

Compared with ATGGTGTACT, ATTAGGATGT is lower in switch fluorescence ratio: 1.012 ± 0.0033 for the first, 0.9948 ± 0.0027 for the second.

First: GGAGAGCGCG
Second: ATACTCAGTG
The switch fluorescence ratio of the first is lower: 0.976 ± 0.067 for the first, 1.069 ± 0.0084 for the second.

Compared with AAAGTACTCG, TTTAGATCAA is lower in switch fluorescence ratio: 1.12 ± 0.0043 for the first, 1 ± 0.0019 for the second.

CAGCCTGGGC and TCGAGGGCGG are within error of each other in switch fluorescence ratio: 0.984 ± 0.016 for the first, 0.98 ± 0.032 for the second.

CGGTAGGGGA and TCGTTTACAC are within error of each other in switch fluorescence ratio: 1.023 ± 0.01 for the first, 1.01 ± 0.033 for the second.

First: TTGGGCATGG
Second: ACCTACGAGT
The switch fluorescence ratio of the first is lower: 1.02 ± 0.048 for the first, 1.37 ± 0.044 for the second.

TTTCAAAGTA and AGGGGGTAAG are within error of each other in switch fluorescence ratio: 0.9657 ± 0.0071 for the first, 0.988 ± 0.028 for the second.

AAAGTGAAGG and CTCGATTTAT are within error of each other in switch fluorescence ratio: 0.996 ± 0.027 for the first, 0.9951 ± 0.0086 for the second.

TACAGGCGGA and GCAAATGGAA are within error of each other in switch fluorescence ratio: 1.02 ± 0.021 for the first, 0.982 ± 0.042 for the second.

AAGGGACGTG and CTTTTTATGT are within error of each other in switch fluorescence ratio: 0.984 ± 0.019 for the first, 0.96 ± 0.016 for the second.

CAGGACTGGG and GATGCCACAG are within error of each other in switch fluorescence ratio: 1.01 ± 0.0056 for the first, 1.02 ± 0.07 for the second.

First: CGGTTCGCCT
Second: TGCAAGTACA
The switch fluorescence ratio of the first is lower: 0.998 ± 0.016 for the first, 1.41 ± 0.063 for the second.

ATCGGCGGGG and TTTTAGCTGG are within error of each other in switch fluorescence ratio: 0.995 ± 0.031 for the first, 1 ± 0.015 for the second.

ACGGAAGGTT and TCGTGCAAGT are within error of each other in switch fluorescence ratio: 1.03 ± 0.043 for the first, 1.05 ± 0.063 for the second.

Going from CAATTGGTAC to GAAGTCTTAA, the switch fluorescence ratio falls from 1.05 ± 0.013 to 1 ± 0.033.

GTGTGGGAGG and GTTAGTTTGC are within error of each other in switch fluorescence ratio: 1.04 ± 0.028 for the first, 1.01 ± 0.021 for the second.

First: GAGTACAAAA
Second: GATTGTGATG
The switch fluorescence ratio of the first is higher: 1.02 ± 0.015 for the first, 0.9724 ± 0.0055 for the second.

TTTTTTGTGG and GTAATGGATC are within error of each other in switch fluorescence ratio: 0.978 ± 0.031 for the first, 0.986 ± 0.042 for the second.

Going from TGCAGGGTTG to GACAGGTTAG, the switch fluorescence ratio falls from 0.99591 ± 0.00085 to 0.9809 ± 0.0069.

TACCAAGTCC and GCACTGGTAA are within error of each other in switch fluorescence ratio: 1.05 ± 0.061 for the first, 1.023 ± 0.0071 for the second.

First: GGTTTTGAAG
Second: CCTATCACAA
The switch fluorescence ratio of the first is lower: 0.9959 ± 0.0063 for the first, 3.47 ± 0.46 for the second.

CAGAGAGGTG and GAAGAGAGGG are within error of each other in switch fluorescence ratio: 1.07 ± 0.041 for the first, 1.016 ± 0.0092 for the second.

First: GGGTACGTTT
Second: AAGCTGGGAC
The switch fluorescence ratio of the first is lower: 0.97231 ± 0.00073 for the first, 1.08 ± 0.015 for the second.

TTTGGGTTAC and GATTTTACGA are within error of each other in switch fluorescence ratio: 1.04 ± 0.044 for the first, 0.994 ± 0.052 for the second.

TTCTTTTTTT and TAAAGAAACT are within error of each other in switch fluorescence ratio: 1.01 ± 0.032 for the first, 1.28 ± 0.35 for the second.

CATATCGCCC and AGGCTGGTCT are within error of each other in switch fluorescence ratio: 1.06 ± 0.039 for the first, 0.952 ± 0.1 for the second.

GAGAAAAGTG and TCGTCTTATA are within error of each other in switch fluorescence ratio: 1.03 ± 0.086 for the first, 0.991 ± 0.014 for the second.

Compared with TGTAGCAGGG, AATGTGCGTT is lower in switch fluorescence ratio: 1.12 ± 0.043 for the first, 0.993 ± 0.04 for the second.

Compared with GGGCAGCTGG, GACGTTACCA is higher in switch fluorescence ratio: 0.981 ± 0.042 for the first, 1.61 ± 0.063 for the second.

GGTTTATTGT and TTTGAAAGAA are within error of each other in switch fluorescence ratio: 0.993 ± 0.056 for the first, 0.9779 ± 0.0054 for the second.

TGTTGCCAAT and AAGTGTAAGG are within error of each other in switch fluorescence ratio: 1.01 ± 0.029 for the first, 1.018 ± 0.0039 for the second.

TTACGGCGCT and ACTTGTTTGC are within error of each other in switch fluorescence ratio: 1.06 ± 0.062 for the first, 1.03 ± 0.035 for the second.

First: CTGAGAGTAT
Second: CGCACCACGA
The switch fluorescence ratio of the first is lower: 1 ± 0.025 for the first, 1.208 ± 0.0072 for the second.

TAGCTCGGTG and CATCGACTGG are within error of each other in switch fluorescence ratio: 1 ± 0.042 for the first, 0.965 ± 0.017 for the second.

AAATGATTGG and ACGGGGTGTT are within error of each other in switch fluorescence ratio: 0.982 ± 0.019 for the first, 1 ± 0.04 for the second.

Compared with GACGGTTTTT, ACGAGGACAG is higher in switch fluorescence ratio: 1.01 ± 0.024 for the first, 1.06 ± 0.0025 for the second.

AGGGTTGTGT and TTCGGGAATT are within error of each other in switch fluorescence ratio: 1.02 ± 0.029 for the first, 1.1 ± 0.11 for the second.

TCTTGAATAA and TTTGATCTAT are within error of each other in switch fluorescence ratio: 0.9856 ± 0.0072 for the first, 0.989 ± 0.028 for the second.

Going from GTGTGACGGT to ACCACAGTTC, the switch fluorescence ratio rises from 0.949 ± 0.019 to 1.06 ± 0.015.

First: GCCAGACGTG
Second: TTCTGCTTAG
The switch fluorescence ratio of the first is lower: 0.995 ± 0.017 for the first, 2.04 ± 0.039 for the second.

CGGCTGGACG and ATAAAGACTT are within error of each other in switch fluorescence ratio: 0.958 ± 0.047 for the first, 0.9755 ± 0.0058 for the second.

TCATTTCAGC and TCAATCGTGG are within error of each other in switch fluorescence ratio: 1.03 ± 0.011 for the first, 1.01 ± 0.021 for the second.

AAGCAGGGGT and CGGTCACTG are within error of each other in switch fluorescence ratio: 0.982 ± 0.074 for the first, 1.002 ± 0.0069 for the second.

AGATTGAATT and TGGTGGTGGC are within error of each other in switch fluorescence ratio: 1.02 ± 0.062 for the first, 0.981 ± 0.0072 for the second.

TTCGGGGGAT and TGGCGCCGGT are within error of each other in switch fluorescence ratio: 1.01 ± 0.02 for the first, 0.995 ± 0.01 for the second.

TTAGGGGTAT and GAATTTTGTA are within error of each other in switch fluorescence ratio: 0.996 ± 0.05 for the first, 0.984 ± 0.041 for the second.

CAGAGTTTGA and CGAGGGACCC are within error of each other in switch fluorescence ratio: 0.969 ± 0.0047 for the first, 1.01 ± 0.044 for the second.
